What was measured:
EGFR on the cell surface = biological target: T1, EGFR on the cell surface (human, UniProt P00533 25-1210); experiment: flow cytometry on cells, 2 ug/mL, N-terminal VD;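 further: cells stained for 30 to 60 min on ice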
T1 construct: whole, on cells
Experimental: Stable cell lines overexpressing a cell-surface antigen of interest or human tumor cell lines were harvested from tissue culture flasks and resuspended in phosphate buffered saline (PBS) containing 5% fetal bovine serum (PBS/FBS). Prior to staining, human tumor cells were incubated on ice with (100 μl) human IgG at 5 μg/ml in PBS/FCS. 1-5×10⁵ cells were incubated with antibody or DVD-Ig (2 μg/mL) in PBS/FBS for 30-60 minutes on ice. […] After 30 minutes incubation on ice, cells were washed twice and resuspended in PBS/FBS. Fluorescence was measured using a Becton Dickinson FACSCalibur (Becton Dickinson, San Jose, Calif.).
The geometric mean is the n root of the multiplication product of n fluorescent signals (a1×a2×a3 . . . an). With log-transformed data the geometric mean is used to normalize the weighting of the data distribution.

[1] = biological target: T2, Recombinant Human MSP Receptor ECD-His tag (human, UniProt Q04912 25-957); experiment: SPR (Biacore), C-terminal VD;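 further: surface plasmon resonance with DVD-Ig proteins captured on an anti-IgG chip and recombinant antigen flowed over in HBS-EP buffer, Langmuir global fit, KD taken as koff/kon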
T2 construct: extracellular domain; bought reagent; also called RON
Experimental: The BIACORE assay (Biacore, Inc, Piscataway, N.J.) determined the affinity of antibodies or DVD-Ig proteins with kinetic measurements of on-rate and off-rate constants. Binding of antibodies or DVD-Ig proteins to a target antigen (for example, a purified recombinant target antigen) was determined by surface plasmon resonance-based measurements with a Biacore® 1000 or 3000 instrument (Biacore AB, Uppsala. Sweden) using running HBS-EP (10 mM HEPES [pH 7.4], 150 mM NaCl, 3 mM EDTA, and 0.005% surfactant P20) at 25° C. […] For example, approximately 5000 RU of goat anti-mouse IgG, (Fcγ), fragment specific polyclonal antibody (Pierce Biotechnology Inc, Rockford, Ill.) diluted in 10 mM sodium acetate (pH 4.5) was directly immobilized across a CM5 research grade biosensor chip using a standard amine coupling kit according to manufacturer's instructions and procedures at 25 μg/ml. Unreacted moieties on the biosensor surface were blocked with ethanolamine. Modified carboxymethyl dextran surface in flowcell 2 and 4 was used as a reaction surface. Unmodified carboxymethyl dextran without goat anti-mouse IgG in flow cell 1 and 3 was used as the reference surface. For kinetic analysis, rate equations derived from the 1:1 Langmuir binding model were fitted simultaneously to association and dissociation phases of all eight injections (using global fit analysis) with the use of Biaevaluation 4.0.1 software. Purified antibodies or DVD-Ig proteins were diluted in HEPES-buffered saline for capture across goat anti-mouse IgG specific reaction surfaces. Antibodies or DVD-Ig proteins to be captured as a ligand (25 μg/ml) were injected over reaction matrices at a flow rate of 5 μl/minute. The association and dissociation rate constants, kₒₙ (M⁻¹s⁻¹) and koff (s⁻¹) were determined under a continuous flow rate of 25 μl/minute. Rate constants were derived by making kinetic binding measurements at different antigen concentrations ranging from 10-200 nM. The equilibrium dissociation constant (M) of the reaction between antibodies or DVD-Ig proteins and the target antigen was then calculated from the kinetic rate constants by the following formula: KD=koff/kₒₙ. Binding was recorded as a function of time and kinetic rate constants were calculated.

Binder	GEO MEAN (EGFR on the cell surface)	also measured
DVD2342 (bispecific antibody) VH: QVQLQESGPGLVKPSQTLSLTCTVSGYSISSDFAWNWIRQPPGKGLEWMGYISYSGNTRYQPSLKSRITISRDTSKNQFFLKLNSVTAADTATYYCVTAGRGFPYWGQGTLVTVSSASTKGPEVQLVESGGGLVQPGGSLRLSCAASGFTFTDYTMDWVRQAPGKGLEWVADVNPNSGGSIYNQRFKGRFTLSVDRSKNTLYLQMNSLRAEDTAVYYCARNLGPSFYFDYWGQGTLVTVSS VL: DIQMTQSPSSMSVSVGDRVTITCHSSQDINSNIGWLQQKPGKSFKGLIYHGTNLDDGVPSRFSGSGSGTDYTLTISSLQPEDFATYYCVQYAQFPWTFGGGTKLEIKRTVAAPDIQMTQSPSSLSASVGDRVTITCKASQDVSIGVAWYQQKPGKAPKLLIYSASYRYTGVPSRFSGSGSGTDFTLTISSLQPEDFATYYCQQYYIYPYTFGQGTKVEIK	44.8	–
DVD2335 (bispecific antibody, DVD-Ig, outer AB062 / inner AB034) VH: QVQLQQWGAGLLKPSETLSLTCAVYGGSFSGYYWSWIRQPPGKGLEWIGEINHSGSTNYNPSLKSRVTISVETSKNQFSLKLSSVTAADTAVYYCARDKWTWYFDLWGRGTLVTVSSASTKGPQVQLQESGPGLVKPSEILSLTCTVSGGSISSHYWSWVRQPPGKGLEWIGYIYYSGSTNYNPSLKSRVTISVDTSKNQFSLNLSSVTAADTAVYYCARIPNYYDRSGYYPGYWYFDLWGRGTLVTVSS VL: DIEMTQSPDSLAVSLGERATINCRSSQSVLYSSSNRNYLAWYQQNPGQPPKLLIYWASTRESGVPDRFSGSGSGTDFTLTISSLQAEDVAVYYCQQYYSTPRTFGQGTKVEIKRTVAAPQAVLTQPSSLSAPPGASASLTCTLRSGFNVDSYRISWYQQKPGSPPQYLLRYKSDSDKQQGSGVPSRFSGSKDASANAGILLISGLQSEDEADYYCMIWHSSAWVFGGGTKLTVL	–	Kd [1]: 39 nM; koff [1]: 0.0051 s⁻¹; kon [1]: 130000 M⁻¹ s⁻¹
DVD2298 (bispecific antibody, DVD-Ig, outer AB400 / inner AB005) VH: EVQLVESGGGLVQPGGSLRLSCAASGFSLTNYGVHWVRQAPGKGLEWLGVGWSGGNTDYNTPFTSRLTINKDNSKNTVYLQMNSLRAEDTAVYYCARALTWYDYEFAYWGQGTLVTVSSASTKGPEVQLVQSGGGLVKPGGSLRLSCAASGFTFSSYAMHWVRQAPGKGLEWVAVISYDGSNKYYADSVKGRFTISRDNSKNTLYLQMNSLRAEDTAVYYCARFSGWPNNYYYYGMDVWGQGTTVTVSS VL: DILLTQSPGTLSLSPGERATLSCRASQSIYTNIHWYQQKPGQAPRLLIKYASESISGIPDRFSGSGSGTDFTLTISRLEPEDFAVYYCQQNLNWPTTFGQGTKLEIKRTVAAPDVVMTQSPLSLPVTPGEPASISCRSSQSLLHSNGFNYVDWYLQKPGQSPHLLIYFGSYRASGVPDRFSGSGSGTDFTLKISRVEAEDVGVYYCMQALQTPPWTFGQGTKVEIR	400	–
DVD2346 (bispecific antibody) VH: QVQLQESGPGLVKPSQTLSLTCTVSGYSISSDFAWNWIRQPPGKGLEWMGYISYSGNTRYQPSLKSRITISRDTSKNQFFLKLNSVTAADTATYYCVTAGRGFPYWGQGTLVTVSSASTKGPEVQLVQSGGGLVKPGGSLRLSCAASGFTFSSFAMHWVRQAPGKGLEWISVIDTRGATYYADSVKGRFTISRDNAKNSLYLQMNSLRAEDTAVYYCARLGNFYYGMDVWGQGTTVTVSS VL: DIQMTQSPSSMSVSVGDRVTITCHSSQDINSNIGWLQQKPGKSFKGLIYHGTNLDDGVPSRFSGSGSGTDYTLTISSLQPEDFATYYCVQYAQFPWTFGGGTKLEIKRTVAAPEIVLTQSPGTLSVSPGERATLSCRASQSIGSSLHWYQQKPGQAPRLLIKYASQSLSGIPDRFSGSGSGTDFTLTISRLEPEDFAVYYCHQSSRLPHTFGQGTKVEIK	24.1	–
DVD2306 (bispecific antibody, DVD-Ig, outer AB400 / inner AB077) VH: EVQLVESGGGLVQPGGSLRLSCAASGFSLTNYGVHWVRQAPGKGLEWLGVGWSGGNTDYNTPFTSRLTINKDNSKNTVYLQMNSLRAEDTAVYYCARALTWYDYEFAYWGQGTLVTVSSASTKGPEVQLVQSGGGLVKPGGSLRLSCAASGFTFSSFAMHWVRQAPGKGLEWISVIDTRGATYYADSVKGRFTISRDNAKNSLYLQMNSLRAEDTAVYYCARLGNFYYGMDVWGQGTTVTVSS VL: DILLTQSPGTLSLSPGERATLSCRASQSIYTNIHWYQQKPGQAPRLLIKYASESISGIPDRFSGSGSGTDFTLTISRLEPEDFAVYYCQQNLNWPTTFGQGTKLEIKRTVAAPEIVLTQSPGTLSVSPGERATLSCRASQSIGSSLHWYQQKPGQAPRLLIKYASQSLSGIPDRFSGSGSGTDFTLTISRLEPEDFAVYYCHQSSRLPHTFGQGTKVEIK	546	–
DVD2304 (bispecific antibody, DVD-Ig, outer AB400 / inner AB075) VH: EVQLVESGGGLVQPGGSLRLSCAASGFSLTNYGVHWVRQAPGKGLEWLGVGWSGGNTDYNTPFTSRLTINKDNSKNTVYLQMNSLRAEDTAVYYCARALTWYDYEFAYWGQGTLVTVSSASTKGPEVQLVQSGAEVKKPGSSVKVSCKASGGTFSSYAISWVRQAPGQGLEWMGGIIPIFGTANYAQKFQGRVTITADKSTSTAYMELSSLRSEDTAVYYCARAPLRFLEWSTQDHYYYYYMDVWGKGTTVTVSS VL: DILLTQSPGTLSLSPGERATLSCRASQSIYTNIHWYQQKPGQAPRLLIKYASESISGIPDRFSGSGSGTDFTLTISRLEPEDFAVYYCQQNLNWPTTFGQGTKLEIKRTVAAPSSELTQDPAVSVALGQTVRITCQGDSLRSYYATWYQQKPGQAPILVIYGENKRPSGIPDRFSGSSSGNTASLTITGAQAEDEADYYCKSRDGSGQHLVFGGGTKLTVL	512	–
DVD2302 (bispecific antibody, DVD-Ig, outer AB400 / inner AB080) VH: EVQLVESGGGLVQPGGSLRLSCAASGFSLTNYGVHWVRQAPGKGLEWLGVGWSGGNTDYNTPFTSRLTINKDNSKNTVYLQMNSLRAEDTAVYYCARALTWYDYEFAYWGQGTLVTVSSASTKGPEVQLVESGGGLVQPGGSLRLSCAASGFTFTDYTMDWVRQAPGKGLEWVADVNPNSGGSIYNQRFKGRFTLSVDRSKNTLYLQMNSLRAEDTAVYYCARNLGPSFYFDYWGQGTLVTVSS VL: DILLTQSPGTLSLSPGERATLSCRASQSIYTNIHWYQQKPGQAPRLLIKYASESISGIPDRFSGSGSGTDFTLTISRLEPEDFAVYYCQQNLNWPTTFGQGTKLEIKRTVAAPDIQMTQSPSSLSASVGDRVTITCKASQDVSIGVAWYQQKPGKAPKLLIYSASYRYTGVPSRFSGSGSGTDFTLTISSLQPEDFATYYCQQYYIYPYTFGQGTKVEIK	563	–
DVD2317 (bispecific antibody, DVD-Ig, outer AB080 / inner AB005) VH: EVQLVESGGGLVQPGGSLRLSCAASGFTFTDYTMDWVRQAPGKGLEWVADVNPNSGGSIYNQRFKGRFTLSVDRSKNTLYLQMNSLRAEDTAVYYCARNLGPSFYFDYWGQGTLVTVSSASTKGPEVQLVQSGGGLVKPGGSLRLSCAASGFTFSSYAMHWVRQAPGKGLEWVAVISYDGSNKYYADSVKGRFTISRDNSKNTLYLQMNSLRAEDTAVYYCARFSGWPNNYYYYGMDVWGQGTTVTVSS VL: DIQMTQSPSSLSASVGDRVTITCKASQDVSIGVAWYQQKPGKAPKLLIYSASYRYTGVPSRFSGSGSGTDFTLTISSLQPEDFATYYCQQYYIYPYTFGQGTKVEIKRTVAAPDVVMTQSPLSLPVTPGEPASISCRSSQSLLHSNGFNYVDWYLQKPGQSPHLLIYFGSYRASGVPDRFSGSGSGTDFTLKISRVEAEDVGVYYCMQALQTPPWTFGQGTKVEIR	–	binding result [1]: no binding (tested: 10-200 nM)
